# Experimental data reported in PMC7218409, “The protein architecture of the endocytic coat analyzed by FRET microscopy” (Molecular Systems Biology, 2020).
# T1: Pan1, full length, with a C-terminal fluorescent tag (S. cerevisiae, UniProt P32521 1-1480)
# T1 construct: Pan1, S. cerevisiae; gene tagged at its endogenous locus; Linker RTLQVD between protein and C-terminal tag; also called Pan1-mCherry; C-terminus of Pan1; source: S. cerevisiae, expressed from its endogenous locus, in live cells; not shown: GFP or mCherry, C-terminal, kept
# T1 sequence (looked up): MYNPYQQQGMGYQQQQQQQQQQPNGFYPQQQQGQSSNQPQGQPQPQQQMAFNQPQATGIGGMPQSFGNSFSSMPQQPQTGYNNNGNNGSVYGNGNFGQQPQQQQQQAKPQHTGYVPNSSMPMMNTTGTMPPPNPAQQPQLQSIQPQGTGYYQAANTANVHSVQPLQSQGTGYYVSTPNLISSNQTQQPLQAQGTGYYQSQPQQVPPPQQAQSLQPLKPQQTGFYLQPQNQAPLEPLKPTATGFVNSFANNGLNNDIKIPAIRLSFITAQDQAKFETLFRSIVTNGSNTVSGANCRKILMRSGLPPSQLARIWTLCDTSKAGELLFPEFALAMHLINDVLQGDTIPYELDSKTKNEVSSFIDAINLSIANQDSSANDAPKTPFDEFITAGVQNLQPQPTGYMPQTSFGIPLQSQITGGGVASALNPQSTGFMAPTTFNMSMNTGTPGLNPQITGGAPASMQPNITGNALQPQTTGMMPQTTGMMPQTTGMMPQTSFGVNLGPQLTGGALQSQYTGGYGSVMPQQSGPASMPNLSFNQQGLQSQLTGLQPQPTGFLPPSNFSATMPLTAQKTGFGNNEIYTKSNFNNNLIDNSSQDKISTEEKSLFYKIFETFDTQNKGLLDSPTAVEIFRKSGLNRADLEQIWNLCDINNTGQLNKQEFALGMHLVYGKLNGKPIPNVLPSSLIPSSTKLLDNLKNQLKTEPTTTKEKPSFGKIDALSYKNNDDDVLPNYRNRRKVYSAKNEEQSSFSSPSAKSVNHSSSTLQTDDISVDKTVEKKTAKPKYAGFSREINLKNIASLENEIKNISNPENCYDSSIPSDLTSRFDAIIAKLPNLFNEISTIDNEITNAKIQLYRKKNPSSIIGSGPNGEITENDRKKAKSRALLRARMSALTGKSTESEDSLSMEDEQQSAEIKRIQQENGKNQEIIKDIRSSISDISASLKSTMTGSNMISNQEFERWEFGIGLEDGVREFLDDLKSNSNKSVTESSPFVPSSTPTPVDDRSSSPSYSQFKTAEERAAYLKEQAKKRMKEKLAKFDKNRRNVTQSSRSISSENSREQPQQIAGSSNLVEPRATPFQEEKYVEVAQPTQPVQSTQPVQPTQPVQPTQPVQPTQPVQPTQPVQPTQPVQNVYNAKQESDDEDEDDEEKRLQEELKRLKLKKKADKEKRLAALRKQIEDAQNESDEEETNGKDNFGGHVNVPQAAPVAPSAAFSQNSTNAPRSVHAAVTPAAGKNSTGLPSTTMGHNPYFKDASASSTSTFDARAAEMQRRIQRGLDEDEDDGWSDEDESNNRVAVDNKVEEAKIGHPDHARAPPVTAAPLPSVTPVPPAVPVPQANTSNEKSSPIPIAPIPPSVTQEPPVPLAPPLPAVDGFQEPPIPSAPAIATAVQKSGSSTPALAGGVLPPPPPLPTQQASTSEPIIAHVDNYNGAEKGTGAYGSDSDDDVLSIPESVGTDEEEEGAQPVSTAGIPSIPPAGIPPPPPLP
# T2: Ede1-mCherry (S. cerevisiae, UniProt P34216 1-1381)
# T2 construct: Ede1 (Eps15/R homolog), S. cerevisiae; gene tagged at its endogenous locus, no truncation told; Linker RTLQVD between protein and C-terminal tag; source: S. cerevisiae, expressed from its endogenous locus, in live cells; not shown: mCherry, C-terminal, kept
# T2 sequence (looked up): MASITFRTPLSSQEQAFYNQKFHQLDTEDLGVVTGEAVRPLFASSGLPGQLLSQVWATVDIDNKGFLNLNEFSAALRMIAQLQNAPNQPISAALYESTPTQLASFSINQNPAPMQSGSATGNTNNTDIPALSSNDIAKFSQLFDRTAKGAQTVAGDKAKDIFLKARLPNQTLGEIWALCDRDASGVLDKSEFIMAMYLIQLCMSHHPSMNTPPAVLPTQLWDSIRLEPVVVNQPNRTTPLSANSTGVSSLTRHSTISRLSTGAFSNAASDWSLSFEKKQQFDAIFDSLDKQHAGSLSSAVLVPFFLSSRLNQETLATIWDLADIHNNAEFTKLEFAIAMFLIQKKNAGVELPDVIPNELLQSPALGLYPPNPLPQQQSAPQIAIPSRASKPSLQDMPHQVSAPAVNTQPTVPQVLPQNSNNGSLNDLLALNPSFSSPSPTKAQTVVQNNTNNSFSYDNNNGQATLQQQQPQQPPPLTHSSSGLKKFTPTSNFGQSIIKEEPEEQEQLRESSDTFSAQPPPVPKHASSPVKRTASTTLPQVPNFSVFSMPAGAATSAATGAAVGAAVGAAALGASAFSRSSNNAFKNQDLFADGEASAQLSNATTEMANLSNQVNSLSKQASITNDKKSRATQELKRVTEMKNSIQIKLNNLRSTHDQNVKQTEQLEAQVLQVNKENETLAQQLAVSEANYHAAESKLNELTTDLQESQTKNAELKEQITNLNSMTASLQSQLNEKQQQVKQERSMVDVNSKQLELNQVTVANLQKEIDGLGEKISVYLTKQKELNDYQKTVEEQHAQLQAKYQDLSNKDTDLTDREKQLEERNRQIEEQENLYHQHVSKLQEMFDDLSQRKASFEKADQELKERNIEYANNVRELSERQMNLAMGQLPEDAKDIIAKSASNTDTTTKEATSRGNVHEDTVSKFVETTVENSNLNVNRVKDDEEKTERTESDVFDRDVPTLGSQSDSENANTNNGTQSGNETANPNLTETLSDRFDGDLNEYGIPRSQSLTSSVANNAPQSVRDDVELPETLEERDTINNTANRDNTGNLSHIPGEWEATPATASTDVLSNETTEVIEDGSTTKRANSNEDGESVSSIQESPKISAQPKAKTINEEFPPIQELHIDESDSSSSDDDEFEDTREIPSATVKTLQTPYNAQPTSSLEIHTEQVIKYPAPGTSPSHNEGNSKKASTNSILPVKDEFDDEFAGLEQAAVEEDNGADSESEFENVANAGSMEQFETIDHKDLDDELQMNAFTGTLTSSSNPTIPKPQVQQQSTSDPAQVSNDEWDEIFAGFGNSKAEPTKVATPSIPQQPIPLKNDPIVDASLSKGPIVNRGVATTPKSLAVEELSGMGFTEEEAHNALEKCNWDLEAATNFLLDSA
# B1: GFP-End3 (natural protein, S. cerevisiae, UniProt P39013 1-349, looked up)
# chain: MPKLEQFEIKKYWQIFSGLKPIENKVNHDQVLPILYNSKLDSSVLNKIWFLADIDDDDNLDFEEFVICMRLIFDMVNKNISSVPDELPDWLIPGSKVNLIKERKKRKQIENADLPPKKEIKVDWYMSPDDLNQYEKIYNSCAKLTDGTITFNELSTKLSTKFFNISKTDLNKVWSLINPQNLPSIDRDPTFYFIHCLRQRNDLGAEIPASLPNSLAEVCNKKQLSYDLRSSQPPTKRKEEANEVDNLRDNGQNSSSDSSGSNVLSNEDSIKQKYASLTDDQVANMREQLEGLLNYKKSEKTQGGSKLSKRINIRSITDDLDNIEQQVEVLENYLNNKRHELQALQAEIN
# notes: End3, S. cerevisiae; gene tagged at its endogenous locus, no truncation told; Linker GS(GGGGS)3ATENNS between N-terminal tag and protein; also called N-terminus of End3; source: S. cerevisiae, expressed from its endogenous locus, in live cells; not shown: GFP, N-terminal, kept
# B2: Syp1-GFP (natural protein, S. cerevisiae, UniProt P25623 1-870, looked up)
# chain: MTEQRTKYADSILTTKSPYEATETIRIRLSQVKLLNKDFYLLFKELANLKRNYAQQLRKIIAENEDITKILNAQMIESNVLTPQEMSAFRFNSLGELRNVWDTVIEELKSDLKSSTEYYNTLDQQVVRELKESVENNTSWRESKDLHSKLSKNAASIEHYSKNNENSSHLEEARRQWDQQSPYLFELFETIDYNRLDTLKNCMLRFQTSFSDYLLNTTKECETVMTKFLAFEPQSEIDRFAKDASQYNFQLSSSSKEVVPNNASPASATGARPVSVSNGAANTEREKKSPQKDKRKSAFGNIGHRLASASSSLTHNDLMNNEFSDSTNNSSLKSKKSSHTLRSKVGSIFGRNKTKNKRQQQSSSNSHIQASITETPNNSSTRVSSTATSSIYQKQRRPTYSSSKSNNWTPGEASDTPPLPPHATPKNVDAPVTADTPPAQTFTPSEVPPSTPQQSSPPTAKEPDSSNLPKTVPISISQPPLQPQSKTKPLPVEPASPSISLPTATVDNQPSGQVDSRPLHIRAPALPPSRKQNFIHNRDSQLYDSLPNHGSGATPTSSSLSSIPQERPVSTLSSQITGELRELNPQATGSSTSLVGQSLFQHSSLDTSQFGLNASIAEVLNASFKDGMLQNSQLIGEIALNYLPNSVMNSPLPIGINLRINNGAKFEKVILNQAFIERVAPEEFKVNPSFIDSRTLGAIKYSIKEPIAPIVIHPVWRFESHQASVVLTVKMSPSLPDEISQIVIEDLVVFVNIDGANATSALSKPQGSFSKEKKRITWRFKEPVVLTRNGEGQRLIARFITDGLAHESAKGVITKFTISETDNVALPHSGAGSGITLTCQELDENNPFGGEWLDVNTKRTLTTGNYHGLA
# notes: Syp1 (FCHo1/2 homolog), S. cerevisiae; gene tagged at its endogenous locus, no truncation told; Linker RTLQVD between protein and C-terminal tag; source: S. cerevisiae, expressed from its endogenous locus, in live cells; not shown: GFP, C-terminal, kept
# What was measured:
# [1] = biological target: T1, Pan1, full length, with a C-terminal …; assay: FRET or BRET; acceptor photobleaching in live yeast; inner cytoplasmic (nucleus and vacuole free) areas; GFP/mCherry or mTurquoise2/mNeonGreen pairs; conditions: partners not purified
# Ede1-mCherry = biological target: T2, Ede1-mCherry; assay: as above; conditions: partners not purified
Binder,FRET efficiency [1],FRET efficiency (Ede1-mCherry)
B1,4.5%,
B2,,2.5%
